Data reported in patent US20110015139A1 (HE HENRY M JACKSON FOUNDATION FOR THE ADVANCEMENT OF …, published 2011).

Molecular target: amyloid beta (Aβ) peptide, incorporated in membranes as the Aβ channel
Assay: cell-based or functional assay

| Binder | EC50 of protection of PC12 cells from Aβ cytotoxicity (LDH release), as a multiple of the EC50 of NAHIS04 [times] | concentration required for 50% protection (EC50) of PC12 cells from Aβ cytotoxicity, LDH release assay, 3 days [nM] | speed of 50% reduction of the flow of ionic charges, relative to NAHIS02 [fold] |
| --- | --- | --- | --- |
| SGYEVHH [NA4] | 2 to 3 | – | – |
| EVHHQKL [NA7] | 2 to 3 | – | – |
| Ac-HHHH-NH2 [NAHIS04 (Ac-His-His-His-His-CONH2)] | – | < 1000 | 8 |
